From the supplement of paper PMC7125110
± gives the standard error. This sample holds only a part of the variants without activity.

B1: glmS ribozyme (parent)
chain: AUAAAAGCGCCAGAACUACAGAAAUGUAGUUGACGAGGAGGAGGUUUAUCGAAUUUUCGGCGGAUGCCUCCAAA

Experiments:
Details in all cases: with glucosamine-6-phosphate
glucosamine-6-phosphate [1] = variants of: B1; test: self-cleavage kobs at 160 uM GlcN6P; higher = faster cleavage; RNA array
Procedure, shortened: (§1)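 Glucosamine-6-phosphate (40 μM to 10 mM) in HEPES/KCl/Mg(OAc)2 buffer was flowed over sequenced MiSeq chips, and tiles were imaged over ~14 h. Barcoded ribozyme variants there had been transcribed in situ by E. coli RNA polymerase and were tracked through a hybridised Cy3 probe at 37 °C. One- or two-exponential decay fits to per-tile medians, normalised to baseline and to non-cleaving reference variants, gave kobs. kcat and KM came from weighted Michaelis–Menten fits across concentrations.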

glucosamine-6-phosphate [2] = variants of: B1; test: self-cleavage kobs at 640 uM GlcN6P; higher = faster cleavage; RNA array
Procedure, shortened: as §1

glucosamine-6-phosphate [3] = variants of: B1; test: self-cleavage kobs at 10000 uM GlcN6P; higher = faster cleavage; RNA array
Procedure, shortened: as §1

glucosamine-6-phosphate [4] = variants of: B1; test: self-cleavage kobs at 2500 uM GlcN6P; higher = faster cleavage; RNA array
Procedure, shortened: as §1

Row | Variant | self-cleavage kobs at 160 uM GlcN6P (glucosamine-6-phosphate [1]) [s⁻¹] | self-cleavage kobs at 640 uM GlcN6P (glucosamine-6-phosphate [2]) [s⁻¹] | self-cleavage kobs at 10000 uM GlcN6P (glucosamine-6-phosphate [3]) [s⁻¹] | self-cleavage kobs at 2500 uM GlcN6P (glucosamine-6-phosphate [4]) [s⁻¹]
1 | A36G G41A G63U | < 1e-05 | < 1e-05 | – | –
2 | G7C C10G C70U | < 1e-05 | – | < 1e-05 | –
3 | C34A G66U | < 1e-05 | < 1e-05 | < 1e-05 | –
4 | A6G A36G G44U C61U | < 1e-05 | < 1e-05 | – | < 1e-05
5 | G7A G37A | < 1e-05 | < 1e-05 | < 1e-05 | –
6 | A36U U55C | < 1e-05 | < 1e-05 | – | –
7 | A12U G13C U47G G60C | < 1e-05 | – | – | < 1e-05
8 | G7C G37U | < 1e-05 | < 1e-05 | – | < 1e-05
9 | A39G U65C | 5.26e-05 ± 2.5e-05 | 0.000513 ± 0.00015 | – | 0.00163 ± 0.0005
10 | G13C A39C A53C | < 1e-05 | – | – | –
11 | A15C A36U A39G | < 1e-05 | < 1e-05 | < 1e-05 | < 1e-05
12 | A12C G43U A53C | < 1e-05 | – | – | –
13 | G7C U56A | < 1e-05 | < 1e-05 | < 1e-05 | < 1e-05
14 | G29A U47G A53G | 6.62e-05 ± 2e-05 | 0.000173 ± 3.2e-05 | – | 0.000477 ± 0.00013
15 | U45G G51C A64C | < 1e-05 | < 1e-05 | – | –
16 | C10G G38U A42C | < 1e-05 | – | – | < 1e-05
17 | G9C C10A G43C C67U | < 1e-05 | < 1e-05 | – | < 1e-05
18 | G41A G60A G63U | < 1e-05 | < 1e-05 | < 1e-05 | < 1e-05
19 | G7A U30C A64C | < 1e-05 | < 1e-05 | – | < 1e-05
20 | C8A C34U G40U G41U U45A G62U | < 1e-05 | – | – | –
21 | G7C G41C | < 1e-05 | < 1e-05 | < 1e-05 | –
22 | A42C C50U | < 1e-05 | < 1e-05 | < 1e-05 | < 1e-05
23 | G13A C50G C61G | 0.000169 ± 2.6e-05 | 0.000203 ± 3.6e-05 | – | 0.000114 ± 2.2e-05
